The values below come from patent EP0331471A1, “High molecular weight prodrug derivatives of antiinflammatory drugs” (Larsen, Claus Selch, priority 1988, dated 1989).

Where two headings read alike, the source gives them in different places. Bounds are passed on as bounds.

The conditions of data set [1]: pigs, from a previous study (8), cited from earlier work.
Data set [2] can be described thus: Water solubility of the conjugates (25°C).
A short description of data set [3]: Hydrolysis (release kinetics) of dextran ester prodrugs in aqueous buffer solution. Format: physicochemical. The following applies: for t(50%) at pH 7.40 and 37°C: 0.05 M phosphate buffer pH 7.40, 37°C; for t(10%) / Arrhenius equation: pH 4.48; for t(10%): time for 10% degradation, calculated from Arrhenius equations; for Ea: hydrolysis at pH 4.48, from slopes of Arrhenius type plots; for Arrhenius equation: kobs in hours⁻¹, T in degrees Kelvin; for kobs: ionic strength 0.5.
Experimental: Release kinetics of the parent drug compounds from the corresponding dextran prodrugs of this invention was carried out in aqueous buffer solution over the pH range 4.5 - 10.0 at 37°C (and in order to determine the activation energies, at pH 4.5, from Arrhenius type plots at 50, 60, 65 and 70°C). […] The 1. order rate constants were derived from the slope of linear plots of log(B∞ -Bt) versus time and for the slow reactions by employing the initial rate method (e.g. (dBt/dt)i = kobsAo), where B∞ and Bt refer to the concentrations of regenerated parent drug at infinity and time t, respectively. (dBt/dt)i repre­sents the initial rate of parent drug formation, whereas kobs and Ao are the pseudo-first-order rate constant and the initial dextran prodrug concentration, respectively. For the fast reactions the initial concentration of the conjugates was in the range 5 - 25 mg/10 ml and for the slow reactions in the range 50 - 250 mg/10 ml. At various times an aliquot of the solutions was withdrawn and analyzed by HPLC for liberated free drug and in some cases for intact dextran prodrug.
A HPLC method was used for the determination of the generated free NSAIDs (the HPLC procedure was further used for determination of the degree of substitution of the polysaccharide prodrugs). […] The flow rate was 1.0 ml/min and the column effluent was monitored at 266 nm. […] Quantitation of the compounds was done by measurements of peak heights in relation to those of standards chromatographed under identical conditions.

Regarding `COc1ccc2cc([C@H](C)C(=O)O)ccc2c1` [NAPROXEN, (+)-2-(6-methoxy-2-napthyl)propionic acid], the β in data set [1] (i.v., 3.6 mg naproxen equivalents) was 0.048 h⁻¹; in data set [1] (naproxen in plasma, p.o.), 0.049 h⁻¹.

Take “O-[2-(3-Benzoylphenyl)propionyl]-dextran T-10 [Example 51]”: in data set [2], the water-solubility was more than 20 % w/v. Further, the “t(50%) at pH 7.40 and 37°C” value in data set [3] turned out to be 93 hours.

“O-[2-(3-Benzoylphenyl)propionyl]-dextran T-500 [Example 52]” showed a water-solubility in data set [2] of more than 20 % w/v. In addition, in data set [3], the “t(50%) at pH 7.40 and 37°C” value was found to be 91 hours.

As to “O-[2-(4-Isobutylphenyl)propionyl]-dextran T-10 [Example 54]”, the water-solubility in data set [2] is more than 20 % w/v. The “t(50%) at pH 7.40 and 37°C” value in data set [3] was found to be 140 hours.

Regarding “O-[2-(4-Isobutylphenyl)propionyl]-dextran T-70 [Example 53]”, in data set [3], the “t(50%) at pH 7.40 and 37°C” value worked out at 144 hours; the Ea is 24.14 kcal/mol; the Arrhenius equation is reported as 1n kobs =28.9 - 12,140/T (n = 5, r = 0.97). For the same compound, the “t(10%)” value in data set [3] (5°C) is given as 31.5 years. Besides, the “t(10%)” value in data set [3] (25°C) is listed as 1.68 years.

Turning to “O-[2-(4-Isobutylphenyl)propionyl]-dextran T-500 [Example 55]”, the water-solubility in data set [2] was more than 20 % w/v. Besides, the “t(50%) at pH 7.40 and 37°C” value in data set [3] is given as 141 hours.

Compound “O-[3-(11β,17-dihydroxy-6α-methylpregna-1,4-diene-3,20-dione-21-oxycarbonyl)propionyl]-dextran T-40 [Example 47]” returned a water-solubility in data set [2] of more than 20 % w/v.

Turning to “O-[3-(11β,17-dihydroxy-6α-methylpregna-1,4-diene-3,20-dione-21-oxycarbonyl)propionyl]-dextran T-70 [Example 46]”, the water-solubility in data set [2] was more than 20 % w/v.

Regarding “O-[3-(11β,17-dihydroxy-6α-methylpregna-1,4-diene-3,20-dione-21-oxycarbonyl)propionyl]-dextran T-500 [Example 48]”, in data set [2], the water-solubility is more than 20 % w/v.

In turn, “O-[3-(11β,17-dihydroxy-pregn-4-ene-3,20-dione-21-oxycarbonyl)propionyl]-dextran T-70 [Example 49]” yielded a water-solubility in data set [2] of more than 20 % w/v.

Regarding “O-[[2-(2,6-dichloroanilino)phenyl]acetyl]-dextran T-10 [Example 60]”, in data set [2], the water-solubility is recorded as more than 20 % w/v.

As to “O-[[2-(2,6-dichloroanilino)phenyl]acetyl]-dextran T-70 [Example 59]”, the water-solubility in data set [2] is more than 20 % w/v. The “t(10%)” value in data set [3] (5°C) is 21.3 years. Moreover, in data set [3] (25°C), the “t(10%)” value is 0.65 years. Moreover, in data set [3], the Ea worked out at 28.73 kcal/mol and the Arrhenius equation is recorded as 1n kobs = 37.6 - 14,450/T (n = 5, r = 0.99). Also, in data set [3] (pH 9.54, 37°C), the kobs is recorded as 3.01 h⁻¹.

For “O-[[2-(2,6-dichloroanilino)phenyl]acetyl]-dextran T-500 [Example 61]”, in data set [2], the water-solubility is on record as more than 20 % w/v.

The compound “O-[±)-2-(3-phenoxyphenol)propionyl]-dextran T-10 [Example 57]” yielded a water-solubility in data set [2] of more than 20 % w/v. Also, the “t(50%) at pH 7.40 and 37°C” value in data set [3] came to 128 hours.

Compound “O-[±)-2-(3-phenoxyphenol)propionyl]-dextran T-70 [Example 56]” had a water-solubility in data set [2] of more than 20 % w/v. In data set [3], the “t(50%) at pH 7.40 and 37°C” value came to 130 hours; the Ea was 25.41 kcal/mol; the Arrhenius equation is recorded as 1n kobs = 30.6 - 12,790/T (n = 5, r = 0.99). Moreover, in data set [3] (5°C), the “t(10%)” value was 59.7 years. The “t(10%)” value in data set [3] (25°C) was 2.72 years. Further, the kobs in data set [3] (pH 10.00, 37°C) is recorded as 1.67 h⁻¹.

Turning to “O-[±)-2-(3-phenoxyphenol)propionyl]-dextran T-500 [Example 58]”, the water-solubility in data set [2] is more than 20 % w/v. In addition, in data set [3], the “t(50%) at pH 7.40 and 37°C” value amounted to 131 hours.
